Assay [1] has as its system binding of HAdV-5 to A549 cells (CAR receptor). The assay can be described thus: Fiber knob competition assay: binding of labeled HAdV-5 to cells. The format is cell-based, human. Here is the method:
Figure 3 HD5 antiviral activity is structure dependent. A) Ribbon representation of HD5 (PDB 1ZMP). Three disulfide bonds are numbered, and the two residues comprising the conserved salt bridge (R6 and E14) are indicated. B) Ad5.eGFP was incubated with 15 µM of each of the indicated defensins. HD5-Abu is HD5 with the six cysteines replaced with L-α-aminobutyric acid. Data are the mean percent of eGFP positive cells compared to control cells infected in the absence of defensin for at least three independent experiments ± SD. C) Binding of Alexa Fluor 488-labeled HAdV-5 to cells was assessed after incubation with or without 20 µM HD5 or HD5-Abu and in competition with 100 nM 5FK or 16 FK. Data are the mean fold increase in geometric mean fluorescence compared to cells alone and are of at least 10,000 cells from each of three independent experiments ± SD.
In order to determine the receptor-dependence of this effect, we pre-incubated cells with recombinant fiber knob from HAdV-5 (5FK) to block receptor (CAR) interactions and measured cell binding of fluorescently labeled HAdV-5 that was pre-incubated with or without HD5 or HD5-Abu (Figure 3C). Cells incubated with fiber knob from HAdV-16 (16FK), which binds CD46, served as a control. We observed that virus binding to cells was reduced 5.2-fold in the presence of 5FK compared to 16FK. […]

Assay [2] concerns HAdV-5. The settings on record: ref [13], cited from earlier work. Here is the method: In order to determine the receptor-dependence of this effect, we pre-incubated cells with recombinant fiber knob from HAdV-5 (5FK) to block receptor (CAR) interactions and measured cell binding of fluorescently labeled HAdV-5 that was pre-incubated with or without HD5 or HD5-Abu (Figure 3C). Cells incubated with fiber knob from HAdV-16 (16FK), which binds CD46, served as a control. […] Therefore, we considered which of the multiple binding sites visualized by cryoEM might lead to enhanced virion stability. We reasoned that we might find a negatively charged region o ...

Another assay concerns HAdV-7p. The assay can be described thus: Virus-defensin binding assay, HAdV-7p. Further details: species or system human adenovirus. Conditions: 20 µM HD5, mean of two or three independent experiments ± SD. An excerpt:
(§1) Figure 2 HD5 binding to HAdV. A) HD5 binding to a representative defensin-sensitive serotype (HAdV-5) was quantified by an equilibrium-binding assay. Data are the mean of the number of HD5 molecules bound per virion at the indicated HD5 concentrations from at least three independent experiments ± SD. Binding curves were fitted using Prism software. B) Binding of HD5 to additional defensin-sensitive (HAdV-7p) and resistant (HAdV-19c, -25p, -51p) serotypes expressed as a percent of HD5 bound to HAdV-5. Data are the mean of two or three independent experiments ± SD.
We assessed HD5 binding to additional serotypes after incubation with 20 µM HD5 (Figure 2B). The sensitive serotype HAdV-7p bound 69.3±15.9% of the amount of HD5 bound to HAdV-5 in parallel samples; whereas, the corresponding values for the resistant serotypes HAdV-19c, -25p, and -51p were 32.5±7.5%, 3.3±5.8%, and 24.6±12.0%, respectively.
To measure HD5 binding to HAdV-5 and -51, HD5 was serially diluted in PBS and mixed with 5 µg purified virus. […] The other half of each sample was used to make a standard curve for quantification. […] Virus bands were quantified using ImageQuant NT software (GE Healthcare). […] The amount of HD5 in the centrifuged samples was then quantified against the standard curve using Prism software. […]

Another assay deals with HAdV-5 capsid. Description: Virus-defensin equilibrium-binding assay, HAdV-5. Details: species or system human adenovirus. The procedure:
Neutralization of HAdV by α-defensins is dependent upon binding to the virus capsid, which can be disrupted in the presence of elevated concentrations of sodium chloride. To perform a more quantitative assessment of this interaction, increasing concentrations of HD5 were incubated with Ad5.eGFP to allow binding, and the virus/HD5 complex was then separated from unbound HD5 on a nycodenz gradient. Bound defensin was visualized after SDS-PAGE using a sensitive fluorescent total protein stain and quantified against a standard curve.
as §1
To measure HD5 binding to HAdV-5 and -51, HD5 was serially diluted in PBS and mixed with 5 µg purified virus. After 1 h incubation on ice, one half of each sample was separated by ultracentrifugation [209,000×g (avg.) for 2 hrs at 4°C] on a discontinuous gradient consisting of 300 µl of 30% nycodenz and 200 µl of 80% nycodenz in 50 mM NaCl, 20 mM HEPES pH 7.4 using an SW55ti rotor with adaptors (Beckman Coulter, Inc.). The visible virus band was collected. The other half of each sample was used to make a standard curve for quantification. All samples were boiled in reducing loading buffer and separated using a 16% PAGEgel (Expedeon, Inc., San Diego, CA) or 10–20% Tris-Tricine gel (Bio-Rad, Hercules, CA). The gels were stained with Deep Purple (GE Healthcare) and imaged on a Typhoon Trio. Virus bands were quantified using ImageQuant NT software (GE Healthcare). The amount of HD5 in each sample was normalized to protein V and hexon. The amount of HD5 in the centrifuged samples was then quantified against the standard curve using Prism software. Affinity and stoichiometry were estimated from the average data of at least three independent experiments using Prism software.

Assay [3] concerns HAdV-5. Conditions: ref [13], cited from earlier work. The source holds these as a separate data set.

Entries after “also recorded” stand apart in the source; their conditions may differ. Like-named read-outs stand apart in the source and are kept apart here.

B1: HD5: human alpha-defensin; synthetic, obtained from Peptides International; three disulfide bonds (PDB 1ZMP) (peptide, UniProt Q01523 20-94, looked up)
Defensin alpha 5: ESLQERADEATTQKQSGEDNQDLAISFAGNGLSALRTSGSQARATCYCRTGRCATRESLSGVCEISGRLYRLCCR
modifications: Defensin-5
For the molecule B1, the “interaction with CAR receptor in presence of HD5” value in assay [1] (20 µM HD5, competition with 5FK) was “does not completely block the interaction with CAR receptor; also recorded: capacity of fiber to bind to CAR was not compromised by HD5 binding”. Moreover, in assay [1] (virus pre-incubated with 20 µM HD5 or HD5-Abu, Alexa Fluor 488, fold increase in geometric mean fluorescence, three independent experiments), the “effect on virus binding to cells” value was “increased virus binding to cells; also recorded: enhanced by HD5”. Further, in the assay with HAdV-5 [2] ([36]), the “effect on HAdV-5 entry into host cells” value was “does not prevent HAdV-5 from entering host cells”. Also, the “binding of HAdV-5 to cells” value in the assay with HAdV-5 [2] is reported as “enhances binding of HAdV-5 to cells”. Further, in the assay on HAdV-7p, the “HD5 bound, percent of HD5 bound to HAdV-5” value is 69.3±15.9%. For the same molecule, the “95% confidence interval of HD5 molecules bound per virus particle at saturation” value in the assay on HAdV-5 capsid (95% confidence interval) is reported as 1603–3919 HD5 molecules. Also, the dissociation constant (Kd) in the assay with HAdV-5 capsid (95% confidence interval, read-out: 95% confidence interval of KD) was 2.8 to 26.2 µM; with HAdV-5 capsid (equilibrium binding, Ad5.eGFP, 1 h on ice in PBS, nycodenz gradient, at least three independent experiments, read-out: KD), approximately 14.5 µM. In addition, in the assay with HAdV-5 capsid (HAdV-5), the “level of HD5 binding (in words)” value was “specific binding”. For the same molecule, the “inhibition of HAdV-5 infection” value in the assay with HAdV-5 [3] (low micromolar concentrations) was “significantly inhibit HAdV-5 infection at low micromolar concentrations”. Besides, the “productive infection by HAdV-5” value in the assay with HAdV-5 [3] is “almost complete block to productive infection”. In the assay on HAdV-5 [3] (read-out: IC50 for HAdV-5 infection), the IC50 was 3 to 4 µM.

Source of the values: publication PMC2891831, “Insight into the Mechanisms of Adenovirus Capsid Disassembly from Studies of Defensin Neutralization” (PLoS Pathogens, 2010).
